In patent publication US20210100916A1, “PREPARATION AND USE OF MITOCHONDRION-TARGETING SELF-ASSEMBLED PROTEIN NANOPARTICLE” (PEKING UNIVERSITY, priority 2018, published 2021):

Columns and labels:
U87MG cells = assay: ROS content in cells (DCFH-DA probe, confocal imaging); format: cell-based; details: 6 μmo/L, 24 hours, 10 μmol/L DCFH-DA, FIGS. 6 and 7
Experimental: Taking U87MG cell line as an example, 5×10^4 U87MG cells were added to a confocal dish and incubated overnight at 37° C. and 5% CO2; GSTP1-MT3(Fe^2+) and GSTP1-MT3(Co^2+) prepared in Example 3 were added to it (the final concentration was 6 μmo/L) and incubated again for 24 hours, and then washed with PBS for three times; then, 10 μmol/L DCFH-DA (ROS probe) was added, incubated at 37° C. for 30 minutes, and washed with PBS for three times; finally, confocal imaging was performed, and statistics was performed on the ROS content.

[1] = Body weight / toxicity during breast cancer treatment; format: in vivo, Balb/c mice; details: 100 μL of 30 pmol/L tail vein, 5 injections, vs PBS
Experimental: Taking the breast cancer of Balb/c mice as an example, 3×10^6 4T1 (stable transfected Luciferase) breast cancer cells were inoculated into Balb/c mice; when the tumor grew to 50-70 mm^3, 100 μL of 30 pmol/L GSTP1-MT3(Co^2+) was injected through the tail vein as the experimental group, and 100μL of PBS was injected through the tail vein as the control group. The injection was performed once every two days, that is, the tail vein injection was performed on the 3rd, 5th, 7th, 9th and 11th day of the experiment, respectively. A total of 5 injections were given. The weights of the mice and the size of the tumor were recorded at different time points.

GSTP1-MT3(Co^2+): Self-assembled protein nanoparticle of MT3-GGGGS-GSTP1 fusion protein (SEQ ID NO: 4) induced by Co^2+
ROS content in cells (U87MG cells): significantly increase | body weights, experimental group vs control group [1]: not much different | toxic or side effects on mice [1]: no obvious toxic or side effects
